Results published in patent US20100145006A1, “SUPRAVALENT COMPOUNDS” (priority 2005, published 2010).
Bridges are numbered along the chain shown (N, C = ends). Where no end group is shown, it is not given here. Side-chain parts run from the residue outwards. [ ]: non-standard residue; d: D form. 1Nal = N[C@@H](Cc1cccc2ccccc12)C(=O)O

T1: erythropoietin receptor (EPOR) on human TF-1 cells (human, UniProt P19235 25-508)
T1 sequence (looked up): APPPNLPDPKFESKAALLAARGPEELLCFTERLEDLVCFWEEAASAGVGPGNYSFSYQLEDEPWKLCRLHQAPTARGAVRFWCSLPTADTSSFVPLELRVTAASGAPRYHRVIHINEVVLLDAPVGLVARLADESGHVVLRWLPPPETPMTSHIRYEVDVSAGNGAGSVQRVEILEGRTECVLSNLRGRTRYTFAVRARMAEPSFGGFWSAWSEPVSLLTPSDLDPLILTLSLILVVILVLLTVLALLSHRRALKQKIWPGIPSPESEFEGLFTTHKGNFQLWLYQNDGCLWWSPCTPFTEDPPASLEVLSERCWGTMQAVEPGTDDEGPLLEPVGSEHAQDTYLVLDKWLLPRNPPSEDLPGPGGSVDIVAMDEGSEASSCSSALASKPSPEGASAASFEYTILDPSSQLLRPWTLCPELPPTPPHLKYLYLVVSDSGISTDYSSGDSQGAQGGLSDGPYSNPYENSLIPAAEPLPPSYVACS


How the values were obtained:
TF-1 Cells [1] = test: TF-1 proliferation assay (MTS, viable cell number), EPO-like activity; assay type: cell-based, human; settings: normalized plots
Method: An experiment was performed in a standard TF-1 cell assay as recommended by the European Pharmacopoe for the determination of EPO-like activity in vitro (please also see below). Basically, TF-1 cells (their proliferation being dependent from the presence of EPO-like activity) are cultured in the presence various concentrations of EPO or EPO-mimetic substances. The resulting cell numbers are quantified using colorimetric MTT-assay and photometric measurements.
In a TF-1 proliferation assay, TF-1 cells are seeded and cultured for several days in varying concentrations of EPO or EPO mimetic peptides in a multi-well plate.
For optimal results TF-1 cells should be cultured for two days in the absence of any cytokine (starved) before starting the assay. Three days after starting the assay, cell proliferation is measured indirectly by assaying the number of viable cells.
A tetrazolium reagent, called MTS, is added which is reduced to coloured formazan. This reaction depends on NADH and NADPH, in other words depends on mitochondrial activity. The amount of formazan is measured spectrophotometrically. Using a range of known cell numbers for calibration, it is possible to determine the absolute number of viable cells present under each condition. The principal design is also illustrated in FIG. 24.
The activity of a certain agent in this assay is determined by: • 1. assessing whether this agent causes an increase in the number of viable cells at a certain concentration, and • 2. at which concentration this agent exerts a half-maximum effect (determination of the EC50).

TF-1 Cells [2] = test: Proliferation assay with TF-1 cells by MTT (printed MU), peptide monomers; assay type: cell-based, human; settings: TF-1 proliferation, MTT-assay data, GraphPad dose-response
Method: Proliferation Assay with TF-1 Cells by MU
TF-1 Cells in logarithmic growth phase (˜2.10^5-1.10^6 cells/ml; RPMI medium; 20% fetal calf serum; supplemented with Penicillin, streptomycin, L-Glutamine; 0.5 ng/ml Interleukin 3) are washed (centrifuge 5 min. 1500 rpm and resuspended in RPMI complete without IL3 at 500.000 cells/ml) and precultured before start of the assay for 24 h without IL-3. At the next day the cells are seeded in 24- or 96-well plates usually using at least 6 concentrations and 4 wells per concentration containing at least 10.000 cells/well per agent to be tested. Each experiment includes controls comprising recombinant EPO as a positive control agent and wells without addition of cytokine as negative control agent. […]
At day 4, prior to start of the analysis, a dilution series of a known number of TF-1 cells is prepared in a number of wells (0/2500/5000/10000/20000/50000 cells/well in 100 μl medium). These wells are treated in the same way as the test wells and later provide a calibration curve from which cell numbers can be determined. […] 25 μl of 10% sodium dodecyl sulfate in water are added to each well prior to measurement E492 in an ELISA Reader.
Using graphical evaluations as shown in FIGS. 17 and 18 based on calculations of the dose-response relationship using the program GraphPad the following EC50 values were determined on the basis of MU-assay data: […]

[3] = molecular target: T1, erythropoietin receptor (EPOR) on human …; test: cell-based or functional assay

Molecule	efficacy and potency compared with other EPO mimetic peptides (TF-1 Cells [1])	EC50, TF-1 cell proliferation (MTT assay) [3]	further results
AGEM40_HES: peptide (AGEM40) HESylated according to the supravalence principle (Ac-C([maleimide-HES 130 kD])GGTYSCHFGKLT[1Nal]VCKKQRGGGTYSCHFGKLT[1Nal]VCKKQRG-NH2; disulfide 7-16, 27-36 (inferred))	highly effective and potent	–	–
Ac-GGTYSCHFGKLT-Na1-VCKKQRG-Am (Ac-GGTYSCHFGKLT[1Nal]VCKKQRG-NH2; cysteine pairing not given here) [BB68]	even more effective than EMP1 and 8849	–	efficacy and potency compared with other EPO mimetic peptides (TF-1 Cells [1]; listed as B868): improved effect
GGTYSCHFGGLTWVCKPQGG	–	–	EC50 values of exemplary peptide monomers (TF-1 Cells [2]): no activity
GGTYSCHFGKLTWVCKKQGG [SEQ ID NO 2, EPO mimetic peptide monomer]	in the same range as EMP1	–	–
GGTYSCHFGRLTWVCKPQGG (disulfide 6-15 (inferred)) [SEQ ID NO 5 peptide GGTYSCHFGRLTWVCKPQGG]	–	5.16 µM	–
GGTYSCHFGPLTWVCKKQGG (disulfide 6-15 (inferred)) [peptide GGTYSCHFGPLTWVCKKQGG]	–	2.52 µM	–
GGTYSCHFGKLTWVCKPQGG (disulfide 6-15 (inferred)) [SEQ ID NO 4 peptide GGTYSCHFGKLTWVCKPQGG]	–	4.66 µM	–
Ac-GGTYSCHFGKLTWVCKKQGG (disulfide 6-15 (inferred)) [SEQ ID NO 2 peptide GGTYSCHFGKLTWVCKKQGG (BB49, monomer)]	–	3.28 µM	–
GGTYSCHFAKLTWVCKKQGG (disulfide 6-15 (inferred)) [peptide GGTYSCHFAKLTWVCKKQGG]	–	5.04 µM	–
GGTYSCHFGRLTWVCKKQGG (disulfide 6-15 (inferred)) [SEQ ID NO 6 peptide GGTYSCHFGRLTWVCKKQGG]	–	4.97 µM	–
